In a protein production outcome set (Wang et al. 2014):

Experiment: label from the status in PepcDB records
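Further: failed if final PepcDB status was selected cloned or expressed and not failed if soluble or beyond.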

Row | Sequence | protein production
1 | MKLTKGKVLLAGCMAMAMSHSVLAQDIKVAIVGAMSGPVAQYGDMQFTGARQAIADINASGGIKGDKLVGVEYDDACDPKQAVAVANKVINDGIRYVIGHLCSSSTQPASDIYEDEGVIMITPAATNADLTTRGYKMIMRTTGLDSDQGPTAAKYIVETIKPKRIAVVHDKQQYGEGLARSVRDSLKEQGAEVVLFEGVTAGDKDFSTLVARLKKENVDFVYFGGYYPEMGQILRQAKQAGLTARFMGPEGVGNSSLSNIAGEASEGMLVTLPKRYDQVPANQPIVDALKAKKLDPTGPFVWTTYAALQSLTTAMERTGSKEPADLANDLKTGKPVETVMGPLSWDDKGDLKGFEFGIFEWHADGSSTAVK | failed
2 | MQPTGNQIQQNQQQQQQLIMRVPKQEVSVSGAARRYVQQAPPNRPPRQNHQNGAIGGKKSSVTIQEVPNNAYLETLNKSGNNKVDDDKLPVFLIKLWNIVEDPNLQSIVHWDDSGASFHISDPYLFGRNVLPHFFKHNNMNSMVRQLNMYGFRKMTPLSQGGLTRTESDQDHLEFSHPCFVQGRPELLSQIKRKQSARTVEDKQVNEQTQQNLEVVMAEMRAMREKAKNMEDKMNKLTKENRDMWTQMGSMRQQHARQQQYFKKLLHFLVSVMQPG | failed
3 | MSLNILVIGTGAIGSFYGALLAKTGHCVSVVARSDYETVKAKGIRIRSATLGDYTFRPAAVVRSAAELETKPDCTLLCIKVVEGADRVGLLRDAVAPDTGIVLISNGIDIEPEVAAAFPDNEVISGLAFIGVTRTAPGEIWHQAYGRLMLGNYPGGVSERVKTLAAAFEEAGIDGIATENITTARWQKCVWNAAFNPLSVLSGGLDTLDILSTQEGFVRAIMQEIRAVAAANGHPLPEDIVEKNVASTYKMPPYKTSMLVDFEAGQPMETEVILGNAVRAGRRTRVAIPHLESVYALMKLLELRTSKSLWGNEGHHHHHH | not failed
4 | MSIYDPNPDQSLARIDALEKELANLKASHNTLDIQNKILKGFISLTNVSAGRMLIKATLQKTMEASIHQTGAQLGSLFLLDGDGRVTESILARGATDQSQKKNIVGQVLDKGLAGWVRENKRTGLINDTTKDYRWLKLPDEPYQALSALGVPIVWGDELLGILTLMHSQVNHFTPACATAMEKTAELIALVLNNARIQTKHKQNETLIQQEDDLLNQAILWFPSIIFILDNQGVLLKCGGKYLAQIGLDPKESIGKSIYYLLPEANELKSLTSHALANNIIESVSVQMERVDHGTWFYDAWFSPILDNHGQVSNVVCMLLPA | failed
5 | MNKMLYGWLLAACCGLPPAFAGDSVDVLAQPALHGPQALRAVLQDVARADARLVAVGERGVVLLSDDNGATWRQATAVPVGVSLTAVQFIDARNGWAVGHAGVVLHSQDGGEHWSVQLDGKRAAALEVQAAEAAADERRLAAAQRLLADGADKPLLALNFTDARNGLVVGAYGVAMRTDDGGRSWQSEIGRLPNGRGLHLYALARQGNQVYIAGEQGLLLRSRDGGEHYEALHGPYDGSYFAATVLPDGRLLLGGLRGSLFASDDGGDSFQALANPTPASINGLRVAGGQLLLANQAGMLLRSGLGAFAAQPVAVSDGLPLTAATTAADGSIVAVGMAGARRLEPSSLEHHHHHH | failed
6 | MTSTCTICERIKLIQAHQNPYFVYELTTGYVVLADSQYFEGYTLFLAKHHVTELHHLPAHEKLRYLEEMSIVQEACAQAFHADKMNIELLGNGDAHVHWHLFPRHNGDTPNPGPVWWTPLETIYGDDVSLDIPRLSRLKRTLSVAIEATLNAREAELQALEALTRPASHRIDSN | failed
7 | MTDNSQFHAASALVQAAHTVSVVGHLRPDADAIGSVAATVAALQQLGKDAVGAIGQLDSMPENLYTIPGASNIKFGDSLPESDLIIVVDCGSIERTGAFESIIVNNPDKVLVVDHHATNPGFGAVNLIDVEAESTTTILYDWFDAMSVQITPDIAHGLYAGLLTDTGCFRWGRPVMHDMAKELMEFGLDIRAISSALLDQTSVDDLRLVGQIVSRIELREAGPYTLAVLVADFDTINGRSRAVVEGLIEMVRAVEGADFGAVFKEYERGVYTVSLRSSNLSVASLAVHLGGGGHIPAAGYTARGTEIEALDTLIEATVTLGESLRSSAHVDVLEHHHHHH | not failed
8 | SLKRKLKPKRLQLPPQDVVFEGEAAMNEYTFYRNWVESWLQHIRSYYLLFIDGDPSLSKFFEIEICAHSWKRSTFDQQVFKFGLLWECVDIARSRTVYWQCALGTGHIQEDKVSEATSPFTDDSCTNSCLSRMTGQ | failed
9 | QHTEERELKKRLMNTARTVSEMTEVKEALARKKQTEAVRHAVEEIRMINEADYIVVMDMNHIRYTHPVSTSIGKKSEGADEEAAFAEHIYFSEAKGEIGTAVRAFYPVKDQDLNQIGVVLVGKTLPGIADILLHLKRD | not failed
10 | GDAPPEIHAIYTDITERTRLEETLTYRSELESKIVDISTRFINTPIDDLDREIEAALQAIGAFVDADRSYVFLFDDEAATMSNTHEWRTEATASTQSRLQNIPYAETPWFMARMRRREGPLRVPRLEDLPPDAAGLRQRLEAGNVQSLLVLPMLNDQDLIGFVGFDAVRQQRDWDADTVMLLRVLSDAISNALQRKTAEKEMLAAKEEAEDANRMKSVFLANMSHEIRTP | not failed
11 | MKALNDLNIFVETARQGSFSKAANSMDMTPAAISASIKRLEGQIGFPLFVRSTRSLRLTSEGELFLDKTTQALATLQEGLDQISSARGELSGQLHITAPSDFGRNMLLDWVDEFIDLYPNVSIKLELSDSLTDMYTKPVDIAIRYGEPADSNLVVLALCGSNERILCASPEYVATHPELTSPADLTQHNCLCYMVADSVYNKWTLTRDGEKEQVVVSGNLMSNDSDLPHRLAIKGKGIANKSLMDISRDLIEGRLVRVLPEWDSGPVPLYMVCADRRLLTPTIRTFRDFIQQKCCQQRANVLATFCH | failed
12 | MRSSDILIVDDEVGIRDLLSEILQDEGYSVALAENAEEARKLRHQARPAMVLLDIWMPDCDGITLLKEWAKNGQLNMPVVVMSGHASIDTAVEATKIGAIDFLEKPISLQKLLSAVENALKHGAAQIETGPVFDKLGNSAAIQEMNREVEAAAKRTSPVFLTGEAGSPFETVARYFHKNGTPWVSPARVEYLIDMPMELLQKAEGGVLYVGDIAQYSRNIQTGITFIIGKAERCRVRVIASCSYAAGSDGISCEEKLAGLFSESVVRIPPLSMQHEDIPFLIQGIACNVAESQKITPTAFSDDALAVLSRYDWPGNFEQLQNVVTTLLLEADGQEIGIGAASSALGRGVPADGTGHMACGFDFNLPLRELREEVERRYFEYHIAQEGQNMSKVAQKVGLERTHLYRKLKQLGIGVSRRAGEKTEE | not failed
13 | MFRSKRYQMVAYAITGSALWGLSGTVSSILFSRYGMPFSTLVTIRMVFSGLILLAAGRGFVGKKDLPMFLVFAIPGLFGVQILYLATISFSNAPVATLLQFLFFPMVAVYDYITIRSLTVSSLILALIFSVAGIYELTTGFPLGGTALRISLTALILGLATAATAALYTVTSARIVKEYGGLRTVASGMMVGGLVSLPLGSFSGVPYFHGLGQADVIPVLALTIFVIVFGTSMAFYLYINSMRYISPVEAAVSGTFEPVAAAMSSYLLLGIKLSAMQYLGGALIVISILVIVISKNRRG | failed
14 | MTSLNRPPFDFKTQYSLGFNAQDDEIVVDFFCGGGGAGTGLEMGLGRKVSVAKNHSAAAISMHTANHPGAKHFTTDVFDGDPDTECGGKAVGWFHMSPDCTHHSQAAGGQPRKREIRNLSWIGLKWAGKKKPRVVSLENVKQILQWGPLVAKRCKSTGRVVKLGGGIAAPGEVVPVDQQFLVPDPARRGQTWAVFVAELERLGYAVEWRVVRACDFGAPTSRERLFMIARCDGQSIVWPEPTHAKRPSKGQQPLKSAAECIDFSDLGKSIFERKKDLAQATLRRVAKGM | failed
15 | MSLSAQADARPTPAPSFSGVTVDGKPFSSASLKGKAYIVNFFATWCPPCRSEIPDMVQVQKTWASRGFTFVGIAVNEQLPNVKNYMKTQGIIYPVMMATPELIRAFNGYIDGGITGIPTSFVIDASGNVSGVIVGPRSKADFDRIVKMALGAKAATKEGHHHHHH | not failed
16 | MATASIAIAETPLVNYALRRGDDALVLGHRLSEWCGHAPMLEEDMALANIGLDLIGQARELFNYAAEVEGAANTEDSLAYLRDVRQYRNLLLVEQPNGDFARTMLRQLFYSAFADSYWRAMMGSSDPTLAAIAAKSEKESAYHLRHASEWVIRLGDGTEESHRRAQAAVDELWAFTGEMFQVDDGDAALIADGIAIDPERLRAGWSETVASVLARATLQQPSSSWMQKGGRAGHHSEHLGHLLSELQSLQRSFPGATW | failed
17 | MRNSCYTSSYRQPVSLVVEWVLIGGLAMQDKLHEIRVFENFQEELFETGHVIVTTEVVEKSLNYFGNAHGGYLFTLCDQVAGLVALSTGDYAVTLQSNINYLKAGHLSDQLKIEGLCVHNGKTTKLVEVLITNQEEKILTRATFTMYVTGSISE | failed
18 | MAEGGGCRERPDAETQKSELGPLMRTTLQRGAQWYLIDSRWFKQWKKYVGFDSWDMYNVGEHNLFPGPIDNSGLFSDPESQTLKEHLIDELDYVLVPTEAWNKLLNWYGCVEGQQPIVRKVVEHGLFVKHCKVEVYLLELKLCENSDPTNVLSCHFSKADTIATIEKEMRKLFNIPAERETRLWNKYMSNTYEQLSKLDNTVQDAGLYQGQVLVIEPQNEDGTWPRQTLQSKSSTAPSRNFTT | failed
19 | MKTLLIIAHAPSENTKLMAEAVLKGAQHPDIEQVQTRWVRPLEATPEDVLSCDGIIMGTTENLGYMSGALKDFFDRCYYPCLEVKQGLPCALYVRAGNDGTGTCRAVETICTGLRWNWIQPPLVCRGDWQTLFIEQCEELGMTMAAGLDVGIY | failed
20 | MYVTTGTNDILLTINDYVNKETASYQLTDISNNTLISEIIEKIKVLKNYTYSSTDLVLYFARVECKLSEKLSTYNKSNRKTIKLELYLSKLITINVRTLQSCGTGTSRCIPFWSFCFRQNIKIKIIDTCEVRVLKQKIYNLTDESTSIPVENIVLLYKGAPLNNFLTLKESELIDNCRIDYFVPLCYIYKKKKEESDEDEDENEEKLKEHTKSEDKKVDTQQNENVKSENVNNENVKNENVNNENVKNENVNNENVNNENVNIENVKNDNNDNAKKC | failed
21 | MITRTVKAQLLAFATVTAVGVSYVGAEYTGLVDDVLGRGYTVRADFADSGGIFPGAEVTYRGVPVGRVGALRLTGSDGVSVALDIKDGVPRIPADTLAVVANRSAVGEQYVDLQPRTSHGPYLLDGSAIPRGSTRVPLPTTDLVLSLDRLVDSVGKDDLRVTVDELGKAFSGTGPNLSRLVDSGNALVESASESLPQTISLIEDSRKVLKTQADQGSSIKSFAHDLAALSAQLKSSDGDLRKLIGNATPAAQQVNSLLKSTGPRLSVLLANLISGGQVTLARLPGVEQSLVTFPALVAGSYTVVPGDGTTHFGLVVNADDPPPCTQGYGTTRRDPSDTSTREANTDARCTAPRGNKTSVRGAQNAPGASTTSGGTNQAAYVTPYDPETGTATGPDGRPVEIGSTGGQQAVFGRESWQWLLVGPMA | failed
22 | MITTIPWKATQAQPNAFPERQALMPVWEGEAIPQAEWQQCWQQAAINVLKEDGLAYFHIPFCASHCIFCGFYRNAWKEDYSKVYTDKLIEELAYEASIRQGNGKIQAVYFGGGTPTALATEDLVRLIKACYQYLPLATDCEFTLEGRISHFDIEKARACVEAGVNRISIGVQTFNSAIRKRLGRKHSGEEAYAYLQALCELDAVIVADLIFGLPNQTDEVWANDINVASGLPLSGLDIYAFNNYPFLPINKMIEHGTLPPAASFEVQAQHYAYAVENLQQAGWTQVSNNHFAFPGRGERNRYNTLVKSNMPCLAFGSGAGGNFSGYSFQVDTTLQTYLDTPADKKALSYLSKQGPNKQLLGIVQHDLELGYLDIKLFRDNPKAMKLLMQWQQLSLLNIDANGIACLNISGRYWSPTLIRKLMLTLPTHDEKEHKMVKLSEQQLAELRQSLAENPGQILEMVAGMKQCSFEEVISCLPQEMITKTDGSRFVEIMQALATLEDAVTFIAHTADAIVEVTGKLPSGQIGRGFYNFDHTHEGGVHGHLRYENCAAIYLLERPFMGKHTVSLNFVNHQGGAMFKIFVGRDAERNLRQNQIDFMRQLIKG | failed
